Article PMC10150220

Biological target: GST-FKBP12
Assay: AUC; sedimentation equilibrium of GST-FKBP12, seven serial two-fold dilutions from 320 µM, 3000-12 000 r.p.m., about 14 h, absorbance at 230 and 280 nm, Sedphat

stoichiometry N: 2
Substance: GST-FKBP12
